Laboratory results: publication PMC5473869

What was measured:
[1] = molecular target: HDAC7 catalytic domain (residues 449–952) (human) (UniProt Q8WUI4); assay: ITC; HDAC7 at 50 µM in the cell, 25 °C; 26 injections of 1.5 µl of SMRT(1255–1452) wild type or alanine mutant at 300 µM; 50 mM KH2PO4/K2HPO4 pH 6.5, 100 mM KCl, 1 mM DTT, 1 mM β-ME; Kd values approximate (noise, aggregation of HDAC7)
[2] = molecular target: HDAC7 catalytic domain (residues 449–952), wild type, purified (human) (UniProt Q8WUI4); assay: ITC; ITC200, HDAC7 50 µM in the cell, SMRT(1255–1452) wild type or alanine mutants 300 µM injected; 50 mM KH2PO4/K2HPO4 pH 6.5, 100 mM KCl, 1 mM DTT, 1 mM β-ME; 25 °C; hampered by precipitation of HDAC7
[3] = molecular target: GST-SMRT (1358–1391) R1381A (human); assay: pull-down; purified GST-peptide or GST control on glutathione sepharose beads, incubated 2 h at 4 °C with supernatant of an E. coli HDAC7 expression lysate; washes with PBS pH 7.3, 3 mM DTT, 0.05% Tween 20, 500 mM NaCl; anti-His western blot
SMRT(1255-1452) (human) [4] = molecular target: SMRT(1255-1452) (human) (UniProt Q9Y618); assay: NMR titration; 15N-labelled SMRT(1255-1452) with 0.72, 2.2 and 3.8 molar equivalents of unlabelled wt-HDAC7; relative HSQC peak intensities fitted to a bimolecular binding equation; 25 °C, 50 mM potassium phosphate pH 6.5, 100 mM KCl, 1 mM DTT; rough estimates, HDAC7 precipitated
SMRT(1255-1452) (human) [5] = molecular target: SMRT(1255-1452) (human) (UniProt Q9Y618); assay: SPR; Biacore 3000, SMRT(1255–1452) amine-coupled to a CM5 chip (5500 RU), HDAC7 injected at 500 nM to 8 µM; 50 mM KH2PO4/K2HPO4 pH 6.5, 100 mM KCl, 1 mM DTT; two-step (three-state) model, overall apparent Kd
SMRT(1255-1452) (human) [6] = molecular target: SMRT(1255-1452) (human) (UniProt Q9Y618); assay: NMR titration; 15N-1H HSQC of labelled SMRT(1255–1452) titrated with unlabeled HDAC7 (1:0.72, 1:2.2, 1:3.8) or mixed with HDAC7 C535A/H541A (40 µM:144 µM, 1:3.6); peak intensities; 50 mM potassium phosphate, 100 mM KCl, 1 mM DTT, pH 6.5, 25 °C
SMRT(1255-1452) (human) [7] = molecular target: SMRT(1255-1452) (human) (UniProt Q9Y618); assay: MST; Monolith NT.115, SMRT(1255–1452) labelled with NT647, HDAC7 or HDAC7 C535A/H541A 20 nM to 20 µM; 25 mM Tris pH 8.0, 10 mM MgCl2, 150 mM KCl, 0.5% Tween-20; room temperature

| Kd [1] | Molecule | further results |
| --- | --- | --- |
| 43 µM | SMRT(1255-1452) K1384A (from UniProt Q9Y618 1255-1452) (domain or fragment) | – |
| 19 µM | SMRT(1255-1452) R1360A (from UniProt Q9Y618 1255-1452) (domain or fragment) | – |
| 55 µM | SMRT(1255-1452) R1381A (from UniProt Q9Y618 1255-1452) (domain or fragment) | – |

The remaining lines, values behind:

| Molecule | Kd [1] | further results |
| --- | --- | --- |
| SMRT(1255-1452) E1376A (from UniProt Q9Y618 1255-1452) (domain or fragment) | 34 µM | – |
| SMRT(1255-1452) L1379A (from UniProt Q9Y618 1255-1452) (domain or fragment) | 7.5 µM | – |
| SMRT(1255-1452) L1386A (from UniProt Q9Y618 1255-1452) (domain or fragment) | 28 µM | – |
| SMRT(1255-1452) V1372A (from UniProt Q9Y618 1255-1452) (domain or fragment) | 37 µM | – |
| SMRT(1255–1452) (from UniProt Q9Y618 1255-1452) (domain or fragment) | – | Kd [2]: 14.1 µM |
| SMRT(1255–1452) R1381A (from UniProt Q9Y618 1255-1452) (domain or fragment) | – | fold reduction of affinity against wild-type SMRT(1255–1452) [2]: 4 fold |
| HDAC7 (residues 449–952), wild type, hexahistidine-tagged, in E. coli expression lysate (domain or fragment) LLWEQQRLAGRLPRGSTGDTVLLPLAQGGHRPLSRAQSSPAAPASLSAPEPASQARVLSSSETPARTLPFTTGLIYDSVMLKHQCSCGDNSRHPEHAGRIQSIWSRLQERGLRSQCECLRGRKASLEELQSVHSERHVLLYGTNPLSRLKLDNGKLAGLLAQRMFVMLPCGGVGVDTDTIWNELHSSNAARWAAGSVTDLAFKVASRELKNGFAVVRPPGHHADHSTAMGFCFFNSVAIACRQLQQQSKASKILIVDWDVHHGNGTQQTFYQDPSVLYISLHRHDDGNFFPGSGAVDEVGAGSGEGFNVNVAWAGGLDPPMGDPEYLAAFRIVVMPIAREFSPDLVLVSAGFDAAEGHPAPLGGYHVSAKCFGYMTQQLMNLAGGAVVLALEGGHDLTAICDASEACVAALLGNRVDPLSEEGWKQKPNLNAIRSLEAVIRVHSKYWGCMQRLASCPDSWVPRVPGADKEEVEAVTALASLSVGILAEDRPSEQLVEEEEPMNL | – | fold reduction of binding against wild-type GST-SMRT (1358–1391) [3]: 4 fold |
| HDAC7 catalytic domain (residues 449–952) (domain or fragment) LLWEQQRLAGRLPRGSTGDTVLLPLAQGGHRPLSRAQSSPAAPASLSAPEPASQARVLSSSETPARTLPFTTGLIYDSVMLKHQCSCGDNSRHPEHAGRIQSIWSRLQERGLRSQCECLRGRKASLEELQSVHSERHVLLYGTNPLSRLKLDNGKLAGLLAQRMFVMLPCGGVGVDTDTIWNELHSSNAARWAAGSVTDLAFKVASRELKNGFAVVRPPGHHADHSTAMGFCFFNSVAIACRQLQQQSKASKILIVDWDVHHGNGTQQTFYQDPSVLYISLHRHDDGNFFPGSGAVDEVGAGSGEGFNVNVAWAGGLDPPMGDPEYLAAFRIVVMPIAREFSPDLVLVSAGFDAAEGHPAPLGGYHVSAKCFGYMTQQLMNLAGGAVVLALEGGHDLTAICDASEACVAALLGNRVDPLSEEGWKQKPNLNAIRSLEAVIRVHSKYWGCMQRLASCPDSWVPRVPGADKEEVEAVTALASLSVGILAEDRPSEQLVEEEEPMNL | – | Kd (SMRT(1255-1452) (human) [4]): 19 µM |
| HDAC7 catalytic domain (residues 449–952), wild type, purified (domain or fragment) LLWEQQRLAGRLPRGSTGDTVLLPLAQGGHRPLSRAQSSPAAPASLSAPEPASQARVLSSSETPARTLPFTTGLIYDSVMLKHQCSCGDNSRHPEHAGRIQSIWSRLQERGLRSQCECLRGRKASLEELQSVHSERHVLLYGTNPLSRLKLDNGKLAGLLAQRMFVMLPCGGVGVDTDTIWNELHSSNAARWAAGSVTDLAFKVASRELKNGFAVVRPPGHHADHSTAMGFCFFNSVAIACRQLQQQSKASKILIVDWDVHHGNGTQQTFYQDPSVLYISLHRHDDGNFFPGSGAVDEVGAGSGEGFNVNVAWAGGLDPPMGDPEYLAAFRIVVMPIAREFSPDLVLVSAGFDAAEGHPAPLGGYHVSAKCFGYMTQQLMNLAGGAVVLALEGGHDLTAICDASEACVAALLGNRVDPLSEEGWKQKPNLNAIRSLEAVIRVHSKYWGCMQRLASCPDSWVPRVPGADKEEVEAVTALASLSVGILAEDRPSEQLVEEEEPMNL | – | Kd (SMRT(1255-1452) (human) [5]): 2.1 µM; Kd (SMRT(1255-1452) (human) [6]): < 40 µM; Kd (SMRT(1255-1452) (human) [7]): 2.8 µM |
